{
  "source": "the supplement of paper PMC10567573",
  "parents": {"B1": {"name": "STK38L (parent)", "chain": "FLPGGDMMTLLMKKDTLTEEETQF"}},
  "data": [
    {"variants_of": "B1", "assay": "protein stability index of a GFP-peptide fusion (GPS, HEK-293T) (PSI 1-6); higher = more stable", "settings": "c terminus: a fixed tail appended", "values": [
      {"variant": "FLPGGDMMTLLMKKITLTEEETQF", "note": "[D15I]", "protein stability index": 1.75},
      {"variant": "FLPGGDMMTLLMKKSTLTEEETQF", "note": "[D15S]", "protein stability index": 1.76},
      {"variant": "FLPGGDMMTLLMKKMTLTEEETQF", "note": "[D15M]", "protein stability index": 2.53},
      {"variant": "FLPGGDMMTLLMKKVTLTEEETQF", "note": "[D15V]", "protein stability index": 2.2},
      {"variant": "FLPGGDMMTLLMKKGTLTEEETQF", "note": "[D15G]", "protein stability index": 2.05},
      {"variant": "FLPGGDMMTLLMKKRTLTEEETQF", "note": "[D15R]", "protein stability index": 1.84},
      {"variant": "FLPGGDMMTLLMKKLTLTEEETQF", "note": "[D15L]", "protein stability index": 2.56},
      {"variant": "FLPGGDMMTLLMKKCTLTEEETQF", "note": "[D15C]", "protein stability index": 2.16},
      {"variant": "FLPGGDMMTLLMKKKTLTEEETQF", "note": "[D15K]", "protein stability index": 1.66},
      {"variant": "FLPGGDMMTLLMKKWTLTEEETQF", "note": "[D15W]", "protein stability index": 1.62},
      {"variant": "FLPGGDMMTLLMKKHTLTEEETQF", "note": "[D15H]", "protein stability index": 2.35},
      {"variant": "FLPGGDMMTLLMKKYTLTEEETQF", "note": "[D15Y]", "protein stability index": 1.1},
      {"variant": "FLPGGDMMTLLMKKTTLTEEETQF", "note": "[D15T]", "protein stability index": 1.86},
      {"variant": "FLPGGDMMTLLMKKPTLTEEETQF", "note": "[D15P]", "protein stability index": 1.83},
      {"variant": "FLPGGDMMTLLMKKNTLTEEETQF", "note": "[D15N]", "protein stability index": 2.23},
      {"variant": "FLPGGDMMTLLMKKETLTEEETQF", "note": "[D15E]", "protein stability index": 3.01},
      {"variant": "FLPGGDMMTLLMKKATLTEEETQF", "note": "[D15A]", "protein stability index": 1.62},
      {"variant": "FLPGGDMMTLLMKKQTLTEEETQF", "note": "[D15Q]", "protein stability index": 1.66},
      {"variant": "FLPGGDMMTLLMKKFTLTEEETQF", "note": "[D15F]", "protein stability index": 1.94},
      {"variant": "FLPGGDMMTLLMKKDHLTEEETQF", "note": "[T16H]", "protein stability index": 2.48},
      {"variant": "FLPGGDMMTLLMKKDSLTEEETQF", "note": "[T16S]", "protein stability index": 2.13},
      {"variant": "FLPGGDMMTLLMKKDVLTEEETQF", "note": "[T16V]", "protein stability index": 2.33},
      {"variant": "FLPGGDMMTLLMKKDFLTEEETQF", "note": "[T16F]", "protein stability index": 1.89},
      {"variant": "FLPGGDMMTLLMKKDDLTEEETQF", "note": "[T16D]", "protein stability index": 2.58},
      {"variant": "FLPGGDMMTLLMKKDALTEEETQF", "note": "[T16A]", "protein stability index": 2.4},
      {"variant": "FLPGGDMMTLLMKKDYLTEEETQF", "note": "[T16Y]", "protein stability index": 2.24},
      {"variant": "FLPGGDMMTLLMKKDMLTEEETQF", "note": "[T16M]", "protein stability index": 2},
      {"variant": "FLPGGDMMTLLMKKDILTEEETQF", "note": "[T16I]", "protein stability index": 2.36},
      {"variant": "FLPGGDMMTLLMKKDPLTEEETQF", "note": "[T16P]", "protein stability index": 3.02},
      {"variant": "FLPGGDMMTLLMKKDQLTEEETQF", "note": "[T16Q]", "protein stability index": 2.17},
      {"variant": "FLPGGDMMTLLMKKDNLTEEETQF", "note": "[T16N]", "protein stability index": 2.51},
      {"variant": "FLPGGDMMTLLMKKDRLTEEETQF", "note": "[T16R]", "protein stability index": 2.11},
      {"variant": "FLPGGDMMTLLMKKDWLTEEETQF", "note": "[T16W]", "protein stability index": 1.96},
      {"variant": "FLPGGDMMTLLMKKDLLTEEETQF", "note": "[T16L]", "protein stability index": 1.74},
      {"variant": "FLPGGDMMTLLMKKDKLTEEETQF", "note": "[T16K]", "protein stability index": 2.31},
      {"variant": "FLPGGDMMTLLMKKDCLTEEETQF", "note": "[T16C]", "protein stability index": 2.21},
      {"variant": "FLPGGDMMTLLMKKDELTEEETQF", "note": "[T16E]", "protein stability index": 2.19},
      {"variant": "FLPGGDMMTLLMKKDGLTEEETQF", "note": "[T16G]", "protein stability index": 2.43},
      {"variant": "FLPGGDMMTLLMKMDTLTEEETQF", "note": "[K14M]", "protein stability index": 1.97},
      {"variant": "FLPGGDMMTLLMKYDTLTEEETQF", "note": "[K14Y]", "protein stability index": 2.09},
      {"variant": "FLPGGDMMTLLMKTDTLTEEETQF", "note": "[K14T]", "protein stability index": 2.27},
      {"variant": "FLPGGDMMTLLMKGDTLTEEETQF", "note": "[K14G]", "protein stability index": 2.25},
      {"variant": "FLPGGDMMTLLMKHDTLTEEETQF", "note": "[K14H]", "protein stability index": 2.38},
      {"variant": "FLPGGDMMTLLMKRDTLTEEETQF", "note": "[K14R]", "protein stability index": 1.96},
      {"variant": "FLPGGDMMTLLMKEDTLTEEETQF", "note": "[K14E]", "protein stability index": 2.88},
      {"variant": "FLPGGDMMTLLMKWDTLTEEETQF", "note": "[K14W]", "protein stability index": 1.7},
      {"variant": "FLPGGDMMTLLMKFDTLTEEETQF", "note": "[K14F]", "protein stability index": 2.39},
      {"variant": "FLPGGDMMTLLMKDDTLTEEETQF", "note": "[K14D]", "protein stability index": 2.92},
      {"variant": "FLPGGDMMTLLMKIDTLTEEETQF", "note": "[K14I]", "protein stability index": 1.96},
      {"variant": "FLPGGDMMTLLMKQDTLTEEETQF", "note": "[K14Q]", "protein stability index": 2.18},
      {"variant": "FLPGGDMMTLLMKNDTLTEEETQF", "note": "[K14N]", "protein stability index": 1.81},
      {"variant": "FLPGGDMMTLLMKADTLTEEETQF", "note": "[K14A]", "protein stability index": 2.48},
      {"variant": "FLPGGDMMTLLMKPDTLTEEETQF", "note": "[K14P]", "protein stability index": 2.46},
      {"variant": "FLPGGDMMTLLMKVDTLTEEETQF", "note": "[K14V]", "protein stability index": 1.62},
      {"variant": "FLPGGDMMTLLMKCDTLTEEETQF", "note": "[K14C]", "protein stability index": 2.55},
      {"variant": "FLPGGDMMTLLMKLDTLTEEETQF", "note": "[K14L]", "protein stability index": 1.89},
      {"variant": "FLPGGDMMTLLMKSDTLTEEETQF", "note": "[K14S]", "protein stability index": 2.69},
      {"variant": "FLPGGDMMTLLMIKDTLTEEETQF", "note": "[K13I]", "protein stability index": 1.87},
      {"variant": "FLPGGDMMTLLMRKDTLTEEETQF", "note": "[K13R]", "protein stability index": 2.21},
      {"variant": "FLPGGDMMTLLMFKDTLTEEETQF", "note": "[K13F]", "protein stability index": 2.21},
      {"variant": "FLPGGDMMTLLMQKDTLTEEETQF", "note": "[K13Q]", "protein stability index": 2.42},
      {"variant": "FLPGGDMMTLLMSKDTLTEEETQF", "note": "[K13S]", "protein stability index": 2.56},
      {"variant": "FLPGGDMMTLLMLKDTLTEEETQF", "note": "[K13L]", "protein stability index": 2.05},
      {"variant": "FLPGGDMMTLLMCKDTLTEEETQF", "note": "[K13C]", "protein stability index": 1.67},
      {"variant": "FLPGGDMMTLLMWKDTLTEEETQF", "note": "[K13W]", "protein stability index": 1.69},
      {"variant": "FLPGGDMMTLLMVKDTLTEEETQF", "note": "[K13V]", "protein stability index": 1.95},
      {"variant": "FLPGGDMMTLLMGKDTLTEEETQF", "note": "[K13G]", "protein stability index": 2.3},
      {"variant": "FLPGGDMMTLLMTKDTLTEEETQF", "note": "[K13T]", "protein stability index": 2.69},
      {"variant": "FLPGGDMMTLLMEKDTLTEEETQF", "note": "[K13E]", "protein stability index": 3.03},
      {"variant": "FLPGGDMMTLLMYKDTLTEEETQF", "note": "[K13Y]", "protein stability index": 2.02},
      {"variant": "FLPGGDMMTLLMDKDTLTEEETQF", "note": "[K13D]", "protein stability index": 3.66},
      {"variant": "FLPGGDMMTLLMHKDTLTEEETQF", "note": "[K13H]", "protein stability index": 2.37},
      {"variant": "FLPGGDMMTLLMMKDTLTEEETQF", "note": "[K13M]", "protein stability index": 2.28},
      {"variant": "FLPGGDMMTLLMPKDTLTEEETQF", "note": "[K13P]", "protein stability index": 2.24},
      {"variant": "FLPGGDMMTLLMNKDTLTEEETQF", "note": "[K13N]", "protein stability index": 2.49},
      {"variant": "FLPGGDMMTLLMKKDTPTEEETQF", "note": "[L17P]", "protein stability index": 2.46},
      {"variant": "FLPGGDMMTLLMKKDTITEEETQF", "note": "[L17I]", "protein stability index": 2.11},
      {"variant": "FLPGGDMMTLLMKKDTCTEEETQF", "note": "[L17C]", "protein stability index": 2.36},
      {"variant": "FLPGGDMMTLLMKKDTETEEETQF", "note": "[L17E]", "protein stability index": 3.35},
      {"variant": "FLPGGDMMTLLMKKDTYTEEETQF", "note": "[L17Y]", "protein stability index": 2},
      {"variant": "FLPGGDMMTLLMKKDTSTEEETQF", "note": "[L17S]", "protein stability index": 2.59},
      {"variant": "FLPGGDMMTLLMKKDTKTEEETQF", "note": "[L17K]", "protein stability index": 2.51},
      {"variant": "FLPGGDMMTLLMKKDTFTEEETQF", "note": "[L17F]", "protein stability index": 1.96},
      {"variant": "FLPGGDMMTLLMKKDTMTEEETQF", "note": "[L17M]", "protein stability index": 2.53},
      {"variant": "FLPGGDMMTLLMKKDTNTEEETQF", "note": "[L17N]", "protein stability index": 2.78},
      {"variant": "FLPGGDMMTLLMKKDTHTEEETQF", "note": "[L17H]", "protein stability index": 2.26},
      {"variant": "FLPGGDMMTLLMKKDTQTEEETQF", "note": "[L17Q]", "protein stability index": 1.98},
      {"variant": "FLPGGDMMTLLMKKDTWTEEETQF", "note": "[L17W]", "protein stability index": 1.75},
      {"variant": "FLPGGDMMTLLMKKDTGTEEETQF", "note": "[L17G]", "protein stability index": 2.37},
      {"variant": "FLPGGDMMTLLMKKDTVTEEETQF", "note": "[L17V]", "protein stability index": 1.94},
      {"variant": "FLPGGDMMTLLMKKDTRTEEETQF", "note": "[L17R]", "protein stability index": 2.39},
      {"variant": "FLPGGDMMTLLMKKDTDTEEETQF", "note": "[L17D]", "protein stability index": 3.2},
      {"variant": "FLPGGDMMTLLMKKDTTTEEETQF", "note": "[L17T]", "protein stability index": 2.63},
      {"variant": "FLPGGDMMTLLMKKDTATEEETQF", "note": "[L17A]", "protein stability index": 2.95}
    ]}
  ]
}
